Earlier results as cited in patent US20140011241A1, “Method enabling isomerization process flows at lower pH, lower temperature, and in the presence of certain inhibiting compounds by using the xylose isomerase enzyme from the microorganism Fulvimarina pelagi” (priority 2011, published 2014).

System: xylose isomerase

B1: xylose isomerase from Thermus thermophilus: xylose isomerase from Thermus thermophilus and mutants derived from it (U.S. Pat. No. 6,475,768) (protein, UniProt P26997 1-387, looked up)
Xylose isomerase: MYEPKPEHRFTFGLWTVGNVGRDPFGDAVRERLDPVYVVHKLAELGAYGVNLHDEDLIPRGTPPQERDQIVRRFKKALDETGLKVPMVTANLFSDPAFKDGAFTSPDPWVRAYALRKSLETMDLGAELGAEIYVVWPGREGAEVEATGKARKVWDWVREALNFMAAYAEDQGYGYRFALEPKPNEPRGDIYFATVGSMLAFIHTLDRPERFGLNPEFAHETMAGLNFVHAVAQALDAGKLFHIDLNDQRMSRFDQDLRFGSENLKAAFFLVDLLESSGYQGPRHFDAHALRTEDEEGVWAFARGCMRTYLILKERAEAFREDPEVKELLAAYYQEDPAALALLGPYSREKAEALKRAELPLEAKRRRGYALERLDQLAVEYLLGVRG
activity at low temperature: very low
pH at which active: 6
